Test results as given in article PMC12416549 (2024).

T1: TNFR1 (Homo sapiens, UniProt P19438)
T1 chain: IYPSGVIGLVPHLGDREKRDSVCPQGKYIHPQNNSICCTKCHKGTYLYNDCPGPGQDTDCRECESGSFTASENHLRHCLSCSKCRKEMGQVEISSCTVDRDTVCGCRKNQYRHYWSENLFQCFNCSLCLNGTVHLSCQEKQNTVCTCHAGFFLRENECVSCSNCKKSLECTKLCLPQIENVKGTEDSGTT

B1: I45A (designed binder)
chain: MTLQELLREEALRRAEAEAFRYALELLAEKFPEQKEYLLDLAEEAESQIRSLSGVDVEDVRKFLDKEWAWVKELLAEHPAELAEVEAARAARLAELRAEVEAKVAA
B2: A17V (designed binder)
chain: MTLQELLREEALRRAEVEAFRYALELLAEKFPEQKEYLLDLAEEIESQIRSLSGVDVEDVRKFLDKEWAWVKELLAEHPAELAEVEAARAARLAELRAEVEAKVAA
B3: A87M (designed binder)
chain: MTLQELLREEALRRAEAEAFRYALELLAEKFPEQKEYLLDLAEEIESQIRSLSGVDVEDVRKFLDKEWAWVKELLAEHPAELAEVEMARAARLAELRAEVEAKVAA
B4: S47Q (designed binder)
chain: MTLQELLREEALRRAEAEAFRYALELLAEKFPEQKEYLLDLAEEIEQQIRSLSGVDVEDVRKFLDKEWAWVKELLAEHPAELAEVEAARAARLAELRAEVEAKVAA
B5: A28Q (designed binder)
chain: MTLQELLREEALRRAEAEAFRYALELLQEKFPEQKEYLLDLAEEIESQIRSLSGVDVEDVRKFLDKEWAWVKELLAEHPAELAEVEAARAARLAELRAEVEAKVAA
B6: L96G (designed binder)
chain: MTLQELLREEALRRAEAEAFRYALELLAEKFPEQKEYLLDLAEEIESQIRSLSGVDVEDVRKFLDKEWAWVKELLAEHPAELAEVEAARAARLAEGRAEVEAKVAA
B7: A106P (designed binder)
chain: MTLQELLREEALRRAEAEAFRYALELLAEKFPEQKEYLLDLAEEIESQIRSLSGVDVEDVRKFLDKEWAWVKELLAEHPAELAEVEAARAARLAELRAEVEAKVAP
B8: L64K (designed binder)
chain: MTLQELLREEALRRAEAEAFRYALELLAEKFPEQKEYLLDLAEEIESQIRSLSGVDVEDVRKFKDKEWAWVKELLAEHPAELAEVEAARAARLAELRAEVEAKVAA
B9: D40K (designed binder)
chain: MTLQELLREEALRRAEAEAFRYALELLAEKFPEQKEYLLKLAEEIESQIRSLSGVDVEDVRKFLDKEWAWVKELLAEHPAELAEVEAARAARLAELRAEVEAKVAA
B10: E67P (designed binder)
chain: MTLQELLREEALRRAEAEAFRYALELLAEKFPEQKEYLLDLAEEIESQIRSLSGVDVEDVRKFLDKPWAWVKELLAEHPAELAEVEAARAARLAELRAEVEAKVAA
B11: E16W (designed binder)
chain: MTLQELLREEALRRAWAEAFRYALELLAEKFPEQKEYLLDLAEEIESQIRSLSGVDVEDVRKFLDKEWAWVKELLAEHPAELAEVEAARAARLAELRAEVEAKVAA
B12: L12M (designed binder)
chain: MTLQELLREEAMRRAEAEAFRYALELLAEKFPEQKEYLLDLAEEIESQIRSLSGVDVEDVRKFLDKEWAWVKELLAEHPAELAEVEAARAARLAELRAEVEAKVAA
B13: E5D (designed binder)
chain: MTLQDLLREEALRRAEAEAFRYALELLAEKFPEQKEYLLDLAEEIESQIRSLSGVDVEDVRKFLDKEWAWVKELLAEHPAELAEVEAARAARLAELRAEVEAKVAA
B14: D40Y (designed binder)
chain: MTLQELLREEALRRAEAEAFRYALELLAEKFPEQKEYLLYLAEEIESQIRSLSGVDVEDVRKFLDKEWAWVKELLAEHPAELAEVEAARAARLAELRAEVEAKVAA
B15: D65P (designed binder)
chain: MTLQELLREEALRRAEAEAFRYALELLAEKFPEQKEYLLDLAEEIESQIRSLSGVDVEDVRKFLPKEWAWVKELLAEHPAELAEVEAARAARLAELRAEVEAKVAA
B16: R89S (designed binder)
chain: MTLQELLREEALRRAEAEAFRYALELLAEKFPEQKEYLLDLAEEIESQIRSLSGVDVEDVRKFLDKEWAWVKELLAEHPAELAEVEAASAARLAELRAEVEAKVAA
B17: L96V (designed binder)
chain: MTLQELLREEALRRAEAEAFRYALELLAEKFPEQKEYLLDLAEEIESQIRSLSGVDVEDVRKFLDKEWAWVKELLAEHPAELAEVEAARAARLAEVRAEVEAKVAA
B18: F63Q (designed binder)
chain: MTLQELLREEALRRAEAEAFRYALELLAEKFPEQKEYLLDLAEEIESQIRSLSGVDVEDVRKQLDKEWAWVKELLAEHPAELAEVEAARAARLAELRAEVEAKVAA
B19: A90Q (designed binder)
chain: MTLQELLREEALRRAEAEAFRYALELLAEKFPEQKEYLLDLAEEIESQIRSLSGVDVEDVRKFLDKEWAWVKELLAEHPAELAEVEAARQARLAELRAEVEAKVAA
B20: V104P (designed binder)
chain: MTLQELLREEALRRAEAEAFRYALELLAEKFPEQKEYLLDLAEEIESQIRSLSGVDVEDVRKFLDKEWAWVKELLAEHPAELAEVEAARAARLAELRAEVEAKPAA
B21: E101C (designed binder)
chain: MTLQELLREEALRRAEAEAFRYALELLAEKFPEQKEYLLDLAEEIESQIRSLSGVDVEDVRKFLDKEWAWVKELLAEHPAELAEVEAARAARLAELRAEVCAKVAA
B22: M1I (designed binder)
chain: ITLQELLREEALRRAEAEAFRYALELLAEKFPEQKEYLLDLAEEIESQIRSLSGVDVEDVRKFLDKEWAWVKELLAEHPAELAEVEAARAARLAELRAEVEAKVAA
B23: A90S (designed binder)
chain: MTLQELLREEALRRAEAEAFRYALELLAEKFPEQKEYLLDLAEEIESQIRSLSGVDVEDVRKFLDKEWAWVKELLAEHPAELAEVEAARSARLAELRAEVEAKVAA
B24: H78M (designed binder)
chain: MTLQELLREEALRRAEAEAFRYALELLAEKFPEQKEYLLDLAEEIESQIRSLSGVDVEDVRKFLDKEWAWVKELLAEMPAELAEVEAARAARLAELRAEVEAKVAA
B25: A15N (designed binder)
chain: MTLQELLREEALRRNEAEAFRYALELLAEKFPEQKEYLLDLAEEIESQIRSLSGVDVEDVRKFLDKEWAWVKELLAEHPAELAEVEAARAARLAELRAEVEAKVAA
B26: L26N (designed binder)
chain: MTLQELLREEALRRAEAEAFRYALENLAEKFPEQKEYLLDLAEEIESQIRSLSGVDVEDVRKFLDKEWAWVKELLAEHPAELAEVEAARAARLAELRAEVEAKVAA
B27: R97E (designed binder)
chain: MTLQELLREEALRRAEAEAFRYALELLAEKFPEQKEYLLDLAEEIESQIRSLSGVDVEDVRKFLDKEWAWVKELLAEHPAELAEVEAARAARLAELEAEVEAKVAA
B28: V85D (designed binder)
chain: MTLQELLREEALRRAEAEAFRYALELLAEKFPEQKEYLLDLAEEIESQIRSLSGVDVEDVRKFLDKEWAWVKELLAEHPAELAEDEAARAARLAELRAEVEAKVAA
B29: K30M (designed binder)
chain: MTLQELLREEALRRAEAEAFRYALELLAEMFPEQKEYLLDLAEEIESQIRSLSGVDVEDVRKFLDKEWAWVKELLAEHPAELAEVEAARAARLAELRAEVEAKVAA
B30: L52S (designed binder)
chain: MTLQELLREEALRRAEAEAFRYALELLAEKFPEQKEYLLDLAEEIESQIRSSSGVDVEDVRKFLDKEWAWVKELLAEHPAELAEVEAARAARLAELRAEVEAKVAA
B31: L3G (designed binder)
chain: MTGQELLREEALRRAEAEAFRYALELLAEKFPEQKEYLLDLAEEIESQIRSLSGVDVEDVRKFLDKEWAWVKELLAEHPAELAEVEAARAARLAELRAEVEAKVAA
B32: L24H (designed binder)
chain: MTLQELLREEALRRAEAEAFRYAHELLAEKFPEQKEYLLDLAEEIESQIRSLSGVDVEDVRKFLDKEWAWVKELLAEHPAELAEVEAARAARLAELRAEVEAKVAA
B33: A90W (designed binder)
chain: MTLQELLREEALRRAEAEAFRYALELLAEKFPEQKEYLLDLAEEIESQIRSLSGVDVEDVRKFLDKEWAWVKELLAEHPAELAEVEAARWARLAELRAEVEAKVAA
B34: K30T (designed binder)
chain: MTLQELLREEALRRAEAEAFRYALELLAETFPEQKEYLLDLAEEIESQIRSLSGVDVEDVRKFLDKEWAWVKELLAEHPAELAEVEAARAARLAELRAEVEAKVAA

Target: T1, TNFR1
Test: yeast display SC50

Going from B1 to B2, the “apparent Kd (screen)” value falls from 13.8 nM to 0.446 nM (31-fold).

Compared with B3, B4 is 2-fold higher in “apparent Kd (screen)” value: 0.49 nM for the first, 0.956 nM for the second.

First: B5
Second: B6
The “apparent Kd (screen)” value of the first is 1.9-fold higher: 4.83 nM for the first, 2.48 nM for the second.

Going from B7 to B8, the “apparent Kd (screen)” value rises from 0.539 nM to 20.2 nM (37-fold).

First: B9
Second: B10
The “apparent Kd (screen)” value of the first is 1.8-fold higher: 9.41 nM for the first, 5.31 nM for the second.

First: B11
Second: B12
The “apparent Kd (screen)” value of the first is 2-fold higher: 1.16 nM for the first, 0.593 nM for the second.

Going from B13 to B14, the “apparent Kd (screen)” value rises from 0.49 nM to 11.4 nM (23-fold).

Going from B15 to B16, the “apparent Kd (screen)” value falls from 26.9 nM to 0.79 nM (34-fold).

First: B17
Second: B18
The “apparent Kd (screen)” value of the first is 6.1-fold lower: 0.446 nM for the first, 2.73 nM for the second.

B19 and B20 are within 1.5-fold of each other in “apparent Kd (screen)” value: 0.593 nM for the first, 0.718 nM for the second.

B21 and B22 are the same in “apparent Kd (screen)” value: 0.49 nM for the first, 0.49 nM for the second.

B23 and B24 are the same in “apparent Kd (screen)” value: 0.49 nM for the first, 0.49 nM for the second.

B25 and B26 are within 1.5-fold of each other in “apparent Kd (screen)” value: 0.653 nM for the first, 0.49 nM for the second.

Going from B27 to B28, the “apparent Kd (screen)” value rises from 0.956 nM to 6.43 nM (6.7-fold).

First: B29
Second: B30
The “apparent Kd (screen)” value of the first is 2.2-fold lower: 0.539 nM for the first, 1.16 nM for the second.

First: B31
Second: B32
The “apparent Kd (screen)” value of the first is 13-fold higher: 20.2 nM for the first, 1.54 nM for the second.

B33 and B34 are within 1.5-fold of each other in “apparent Kd (screen)” value: 0.539 nM for the first, 0.653 nM for the second.
